{"source": "paper PMC4232046", "about": "“The Janus transcription factor HapX controls fungal adaptation to both iron starvation and iron excess”", "biological_target": "HapX(24-158) (Aspergillus fumigatus, UniProt Q4WER3 24-158)", "sequence (Q4WER3 24-158)": "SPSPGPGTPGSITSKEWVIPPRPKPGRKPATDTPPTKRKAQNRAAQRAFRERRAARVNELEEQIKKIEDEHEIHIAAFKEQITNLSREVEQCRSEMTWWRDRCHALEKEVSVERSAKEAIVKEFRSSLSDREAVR", "test": "SPR; HapX alone, no CBC; SPR Biacore T200, 25 C; 10 mM phosphate pH 7.4, 2.7 mM KCl, 137 mM NaCl, 1 mM DTT, 0.005% surfactant P20, 10 ug/ml poly(dI-dC); biotin-DNA on streptavidin CM3 chip", "settings": "protein: recombinant; tags: MBP fusion cleaved with TEV; extended N-terminus with TEV site; chain copies: 2; label: 5' biotin on strand 1; blunt"}
{"binder": "cccAp-369-37 (dsDNA) DNA 1: AAATCCACCAATCAACGCCTCCGTGATTGTCAGCAAT DNA 2: ATTGCTGACAATCACGGAGGCGTTGATTGGTGGATTT", "values": [{"measurement": "Kd", "value": 171, "unit": "nM"}]}
